PMC10711656, “RZZ‐Spindly and CENP‐E form an integrated platform to recruit dynein to the kinetochore corona” (The EMBO Journal, 2023)

B1: EGFP‐CENP‐E^2070C (domain or fragment, human, UniProt Q02224 2070-2701, looked up)
chain: RQNHQVKPEKRLLSDGQQHLTESLREKCSRIKELLKRYSEMDDHYECLNRLSLDLEKEIEFQKELSMRVKANLSLPYLQTKHIEKLFTANQRCSMEFHRIMKKLKYVLSYVTKIKEEQHESINKFEMDFIDEVEKQKELLIKIQHLQQDCDVPSRELRDLKLNQNMDLHIEEILKDFSESEFPSIKTEFQQVLSNRKEMTQFLEEWLNTRFDIEKLKNGIQKENDRICQVNNFFNNRIIAIMNESTEFEERSATISKEWEQDLKSLKEKNEKLFKNYQTLKTSLASGAQVNPTTQDNKNPHVTSRATQLTTEKIRELENSLHEAKESAMHKESKIIKMQKELEVTNDIIAKLQAKVHESNKCLEKTKETIQVLQDKVALGAKPYKEEIEDLKMKLVKIDLEKMKNAKEFEKEISATKATVEYQKEVIRLLRENLRRSQQAQDTSVISEHTDPQPSNKPLTCGGGSGIVQNTKALILKSEHIRLEKEISKLKQQNEQLIKQKNELLSNNQHLSNEVKTWKERTLKREAHKQVTCENSPKSPKVTGTASKKKQITPSQCKERNLQDPVPKESPKSCFFDSRSKSLPSPHPVRYFDNSSLGLCPEVQNAGAESVDSQPGPWHASSGKDVPECKTQ
notes: codon-optimised cDNA; The His6-EGFP tag is PreScission-cleavable, but no cleavage step is described; source: insect cells (biGBac; baculovirus from Sf9, expression in Tnao38), purified (HisTrap, Superdex 200); not shown: EGFP, N-terminal, kept
B2: EGFP‐CENP‐E^2366C (domain or fragment, human, UniProt Q02224 2366-2701, looked up)
chain: NKNPHVTSRATQLTTEKIRELENSLHEAKESAMHKESKIIKMQKELEVTNDIIAKLQAKVHESNKCLEKTKETIQVLQDKVALGAKPYKEEIEDLKMKLVKIDLEKMKNAKEFEKEISATKATVEYQKEVIRLLRENLRRSQQAQDTSVISEHTDPQPSNKPLTCGGGSGIVQNTKALILKSEHIRLEKEISKLKQQNEQLIKQKNELLSNNQHLSNEVKTWKERTLKREAHKQVTCENSPKSPKVTGTASKKKQITPSQCKERNLQDPVPKESPKSCFFDSRSKSLPSPHPVRYFDNSSLGLCPEVQNAGAESVDSQPGPWHASSGKDVPECKTQ
notes: source: E. coli BL21 (DE3) RP plus, purified (HisTrap FF, Superose 6); not shown: EGFP, N-terminal, kept

Tests used:
[1] = target: T1, ^mChRZZS filaments (mCherry-RZZ with prefarnesylated Spindly, polymerised with GST-MPS1) (UniProt P50748 1-2209; Q9H900 1-591; O43264 1-779; Q96EA4 1-605, incubated with GST-MPS1 (the paper says that MPS1 phosphorylates ROD on Thr13 and Ser15) | farnesylated (prefarnesylated)); assay: filament-binding assay (fluorescence microscopy); mCherry-RZZS filaments diluted 1:8, EGFP-CENP-E constructs added to 1 μM, flowed into a flow chamber and imaged; M-buffer (50 mM HEPES pH 7.5, 100 mM NaCl, 1 mM MgCl2, 1 mM TCEP); details: both partners purified
T1 construct: ROD subunit of the ROD-Zwilch-ZW10 (RZZ) complex; Zwilch subunit of the RZZ complex; ZW10 subunit of the RZZ complex; Spindly, dynein-dynactin adaptor; no mCherry is named on the Spindly of the filaments; Filaments formed essentially as described by d'Amico et al (2022); source: mCherry-RZZ: biGBac system, purified as previously described; 4 μM mCherry-RZZ and 8 μM prefarnesylated Spindly …
T1 sequence (P50748 whole entry, chain 1 of 4): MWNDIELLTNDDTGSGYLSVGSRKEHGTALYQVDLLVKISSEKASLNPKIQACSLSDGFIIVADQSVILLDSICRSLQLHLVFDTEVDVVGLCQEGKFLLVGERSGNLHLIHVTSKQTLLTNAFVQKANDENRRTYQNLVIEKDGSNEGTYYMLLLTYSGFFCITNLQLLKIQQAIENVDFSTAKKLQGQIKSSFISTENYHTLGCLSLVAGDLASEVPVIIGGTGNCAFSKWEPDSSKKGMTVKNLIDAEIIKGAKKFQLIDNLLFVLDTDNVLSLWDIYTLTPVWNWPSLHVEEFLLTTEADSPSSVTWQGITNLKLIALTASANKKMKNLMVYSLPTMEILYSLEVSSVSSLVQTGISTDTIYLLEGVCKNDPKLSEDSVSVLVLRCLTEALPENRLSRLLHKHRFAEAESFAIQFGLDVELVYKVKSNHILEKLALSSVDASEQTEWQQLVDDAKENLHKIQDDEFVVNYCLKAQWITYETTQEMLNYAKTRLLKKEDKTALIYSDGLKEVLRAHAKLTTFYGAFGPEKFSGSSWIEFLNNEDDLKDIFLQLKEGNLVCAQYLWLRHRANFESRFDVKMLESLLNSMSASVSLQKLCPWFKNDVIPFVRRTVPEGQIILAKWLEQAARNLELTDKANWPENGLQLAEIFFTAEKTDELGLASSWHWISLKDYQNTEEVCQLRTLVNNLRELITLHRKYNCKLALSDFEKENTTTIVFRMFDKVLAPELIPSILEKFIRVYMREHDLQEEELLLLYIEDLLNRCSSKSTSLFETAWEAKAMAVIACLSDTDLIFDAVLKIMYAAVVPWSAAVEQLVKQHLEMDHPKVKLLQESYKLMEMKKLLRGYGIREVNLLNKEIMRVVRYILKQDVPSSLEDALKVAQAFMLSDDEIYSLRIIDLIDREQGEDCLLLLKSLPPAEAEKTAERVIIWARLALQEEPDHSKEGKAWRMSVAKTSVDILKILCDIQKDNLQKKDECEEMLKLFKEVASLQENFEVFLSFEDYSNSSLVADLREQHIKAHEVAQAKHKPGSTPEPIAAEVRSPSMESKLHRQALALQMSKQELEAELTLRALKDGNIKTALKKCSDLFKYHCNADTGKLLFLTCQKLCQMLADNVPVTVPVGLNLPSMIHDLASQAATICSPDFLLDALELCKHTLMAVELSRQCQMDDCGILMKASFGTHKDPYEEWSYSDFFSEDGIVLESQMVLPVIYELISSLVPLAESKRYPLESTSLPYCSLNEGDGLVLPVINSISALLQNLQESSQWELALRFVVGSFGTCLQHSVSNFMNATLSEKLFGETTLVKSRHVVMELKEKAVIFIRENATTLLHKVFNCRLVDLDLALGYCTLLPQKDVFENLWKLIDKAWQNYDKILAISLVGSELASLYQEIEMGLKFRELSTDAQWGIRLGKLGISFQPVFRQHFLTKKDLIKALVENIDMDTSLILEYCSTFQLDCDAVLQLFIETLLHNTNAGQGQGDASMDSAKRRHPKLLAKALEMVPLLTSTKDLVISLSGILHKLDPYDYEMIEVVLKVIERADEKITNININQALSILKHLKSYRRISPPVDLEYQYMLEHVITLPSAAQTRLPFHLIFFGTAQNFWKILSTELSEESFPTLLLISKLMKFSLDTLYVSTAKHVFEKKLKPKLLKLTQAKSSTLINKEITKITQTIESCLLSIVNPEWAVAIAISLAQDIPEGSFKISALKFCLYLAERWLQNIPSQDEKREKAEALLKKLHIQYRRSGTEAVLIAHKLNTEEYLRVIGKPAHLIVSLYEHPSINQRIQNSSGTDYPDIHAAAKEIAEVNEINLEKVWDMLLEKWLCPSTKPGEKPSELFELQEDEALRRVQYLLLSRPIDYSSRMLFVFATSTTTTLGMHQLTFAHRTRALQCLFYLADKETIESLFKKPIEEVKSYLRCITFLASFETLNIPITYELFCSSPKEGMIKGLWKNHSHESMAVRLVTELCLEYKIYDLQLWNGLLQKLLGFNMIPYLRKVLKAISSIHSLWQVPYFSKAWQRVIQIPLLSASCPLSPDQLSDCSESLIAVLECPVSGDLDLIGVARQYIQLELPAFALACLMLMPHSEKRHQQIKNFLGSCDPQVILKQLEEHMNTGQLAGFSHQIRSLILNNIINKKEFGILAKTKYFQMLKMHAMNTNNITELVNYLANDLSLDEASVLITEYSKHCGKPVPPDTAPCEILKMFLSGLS
T1 sequence (Q9H900 whole entry, chain 2 of 4): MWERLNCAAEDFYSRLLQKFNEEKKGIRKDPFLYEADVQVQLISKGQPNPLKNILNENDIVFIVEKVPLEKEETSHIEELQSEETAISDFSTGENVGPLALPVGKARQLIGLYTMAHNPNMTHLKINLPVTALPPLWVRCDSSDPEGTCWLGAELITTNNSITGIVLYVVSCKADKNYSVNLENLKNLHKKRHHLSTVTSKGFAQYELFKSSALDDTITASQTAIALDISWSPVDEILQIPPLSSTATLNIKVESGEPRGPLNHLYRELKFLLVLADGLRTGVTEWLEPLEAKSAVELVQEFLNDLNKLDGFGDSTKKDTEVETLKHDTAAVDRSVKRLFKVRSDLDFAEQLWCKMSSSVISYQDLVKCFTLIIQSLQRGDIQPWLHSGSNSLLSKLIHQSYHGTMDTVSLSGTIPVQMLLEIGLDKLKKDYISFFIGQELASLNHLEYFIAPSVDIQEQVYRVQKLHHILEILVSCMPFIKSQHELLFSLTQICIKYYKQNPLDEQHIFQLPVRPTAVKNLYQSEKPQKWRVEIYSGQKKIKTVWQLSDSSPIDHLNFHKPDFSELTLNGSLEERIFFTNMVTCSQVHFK
T1 sequence (O43264 whole entry, chain 3 of 4): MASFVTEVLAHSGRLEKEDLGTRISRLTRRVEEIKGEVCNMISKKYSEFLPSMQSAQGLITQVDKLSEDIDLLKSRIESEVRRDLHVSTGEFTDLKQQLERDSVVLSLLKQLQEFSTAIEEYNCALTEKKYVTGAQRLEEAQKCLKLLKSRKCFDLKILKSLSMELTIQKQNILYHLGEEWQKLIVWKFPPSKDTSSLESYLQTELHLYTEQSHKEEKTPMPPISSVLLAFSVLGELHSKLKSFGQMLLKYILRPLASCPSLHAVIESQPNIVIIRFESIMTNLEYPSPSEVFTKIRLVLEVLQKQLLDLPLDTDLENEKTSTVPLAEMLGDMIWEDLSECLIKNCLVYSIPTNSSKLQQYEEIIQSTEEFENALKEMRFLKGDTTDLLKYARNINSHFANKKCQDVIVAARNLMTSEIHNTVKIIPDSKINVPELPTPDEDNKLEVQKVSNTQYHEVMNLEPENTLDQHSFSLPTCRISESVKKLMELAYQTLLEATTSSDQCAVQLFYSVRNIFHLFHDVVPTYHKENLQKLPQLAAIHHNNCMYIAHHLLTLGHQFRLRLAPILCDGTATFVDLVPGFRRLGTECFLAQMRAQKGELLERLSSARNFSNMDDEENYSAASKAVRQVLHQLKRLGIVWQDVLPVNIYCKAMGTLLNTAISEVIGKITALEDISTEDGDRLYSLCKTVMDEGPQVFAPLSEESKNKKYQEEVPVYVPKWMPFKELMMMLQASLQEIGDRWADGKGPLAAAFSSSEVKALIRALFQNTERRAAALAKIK
T1 sequence (Q96EA4 whole entry, chain 4 of 4): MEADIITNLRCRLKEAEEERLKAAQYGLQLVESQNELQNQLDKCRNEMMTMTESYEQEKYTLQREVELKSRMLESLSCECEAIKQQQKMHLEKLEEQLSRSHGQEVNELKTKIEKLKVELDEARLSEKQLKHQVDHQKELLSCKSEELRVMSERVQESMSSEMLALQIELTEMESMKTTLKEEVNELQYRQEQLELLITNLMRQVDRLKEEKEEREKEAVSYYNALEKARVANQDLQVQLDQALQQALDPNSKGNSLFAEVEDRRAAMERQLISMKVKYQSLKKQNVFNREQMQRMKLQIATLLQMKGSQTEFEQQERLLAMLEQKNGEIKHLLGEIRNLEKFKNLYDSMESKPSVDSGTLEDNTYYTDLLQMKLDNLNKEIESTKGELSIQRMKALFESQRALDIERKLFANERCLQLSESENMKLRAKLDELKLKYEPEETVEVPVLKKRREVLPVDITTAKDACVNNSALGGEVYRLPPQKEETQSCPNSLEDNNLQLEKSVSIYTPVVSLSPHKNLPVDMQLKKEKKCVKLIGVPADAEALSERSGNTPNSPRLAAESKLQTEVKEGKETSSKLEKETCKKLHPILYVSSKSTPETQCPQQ

[2] = target: T2, ^mCHRZZ^mChS rings (mCherry-RZZ with prefarnesylated mCherry-Spindly, polymerised with GST-MPS1) (UniProt P50748 1-2209; Q9H900 1-591; O43264 1-779; Q96EA4 1-605, incubated with GST-MPS1 (the paper says that MPS1 phosphorylates ROD on Thr13 and Ser15) | farnesylated (prefarnesylated)); assay: TIRF microscopy ring-binding assay; mCherry-RZZ/mCherry-Spindly rings (approximately 40 nM) held on the coverslip by anti-mCherry GST-tagged nanobody; EGFP-CENP-E constructs (10 nM) flowed in; A-buffer (50 mM HEPES pH 8, 200 mM NaCl, 2 mM TCEP, 0.1 mg/ml BSA); room temperature; details: both partners purified
T2 construct: ROD subunit of the ROD-Zwilch-ZW10 (RZZ) complex; Zwilch subunit of the RZZ complex; ZW10 subunit of the RZZ complex; Spindly, dynein-dynactin adaptor; Constructs as in Sacristan et al, 2018, Raisch et al, 2022 and d'Amico et al, 2022; also called RZZS minicircles; RZZS rings; source: mCherry-RZZ: biGBac system, purified as previously described; mCherry-Spindly: Tnao38 insect cells, purified; 4 …
T2 sequence (P50748 whole entry, chain 1 of 4): as the sequence (P50748 whole entry, chain 1 of 4) above
T2 sequence (Q9H900 whole entry, chain 2 of 4): as the sequence (Q9H900 whole entry, chain 2 of 4) above
T2 sequence (O43264 whole entry, chain 3 of 4): as the sequence (O43264 whole entry, chain 3 of 4) above
T2 sequence (Q96EA4 whole entry, chain 4 of 4): as the sequence (Q96EA4 whole entry, chain 4 of 4) above

Binder | binding result [1] | binding result [2]
B1 | binds | binds
B2 |  | binds
